Patent US20250092426, “CAS ENDONUCLEASES AND RELATED METHODS” (Flagship Pioneering Innovations VII, LLC, published 2025)

Biological target: T1, CasEnd-37 (synthetic construct)
T1 chain: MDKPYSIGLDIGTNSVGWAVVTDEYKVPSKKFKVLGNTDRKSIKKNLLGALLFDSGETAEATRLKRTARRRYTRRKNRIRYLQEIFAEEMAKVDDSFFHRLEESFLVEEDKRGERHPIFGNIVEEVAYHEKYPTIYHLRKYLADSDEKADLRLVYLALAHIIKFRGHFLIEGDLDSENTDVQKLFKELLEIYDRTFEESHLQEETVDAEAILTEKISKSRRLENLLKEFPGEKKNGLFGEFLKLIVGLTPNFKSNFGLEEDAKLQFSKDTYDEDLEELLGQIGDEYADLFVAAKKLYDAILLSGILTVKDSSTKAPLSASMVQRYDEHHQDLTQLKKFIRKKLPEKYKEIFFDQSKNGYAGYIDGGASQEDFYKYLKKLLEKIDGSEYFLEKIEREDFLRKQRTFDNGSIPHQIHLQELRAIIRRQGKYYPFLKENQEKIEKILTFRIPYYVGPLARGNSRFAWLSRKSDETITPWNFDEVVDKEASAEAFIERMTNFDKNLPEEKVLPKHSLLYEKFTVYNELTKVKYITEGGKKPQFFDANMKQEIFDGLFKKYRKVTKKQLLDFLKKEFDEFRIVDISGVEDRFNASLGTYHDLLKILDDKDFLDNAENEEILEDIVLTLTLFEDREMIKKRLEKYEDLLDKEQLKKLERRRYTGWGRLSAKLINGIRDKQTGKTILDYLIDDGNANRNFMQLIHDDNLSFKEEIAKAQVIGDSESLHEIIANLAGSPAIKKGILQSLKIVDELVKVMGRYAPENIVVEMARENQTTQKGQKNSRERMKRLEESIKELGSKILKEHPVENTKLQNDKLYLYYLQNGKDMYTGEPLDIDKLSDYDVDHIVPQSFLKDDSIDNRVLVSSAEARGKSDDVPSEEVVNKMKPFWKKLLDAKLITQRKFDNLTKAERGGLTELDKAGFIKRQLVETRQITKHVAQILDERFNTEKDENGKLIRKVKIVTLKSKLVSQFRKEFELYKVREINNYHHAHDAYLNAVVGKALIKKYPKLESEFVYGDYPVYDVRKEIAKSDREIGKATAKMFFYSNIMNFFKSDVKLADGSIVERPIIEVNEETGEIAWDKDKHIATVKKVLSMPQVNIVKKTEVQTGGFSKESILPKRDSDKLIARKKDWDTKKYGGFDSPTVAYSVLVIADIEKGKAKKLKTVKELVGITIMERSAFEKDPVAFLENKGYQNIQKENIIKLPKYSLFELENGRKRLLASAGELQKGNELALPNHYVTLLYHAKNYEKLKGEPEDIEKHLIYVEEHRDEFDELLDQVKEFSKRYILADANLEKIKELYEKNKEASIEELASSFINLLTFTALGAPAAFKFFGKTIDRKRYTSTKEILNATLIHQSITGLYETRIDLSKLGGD
Assay: cell_activity; +++; HEK293T; PAM not stated
Protocol: The ability of the candidate endonucleases, including endonucleases 1-38 (CasEnds 1-38) (set forth in Table 1 and SEQ ID NOS: 1-38, respectively), to mediate target nucleic acid editing was assessed utilizing a blue fluorescent protein (BFP) to green fluorescent protein (GFP) conversion assay, wherein programmed nucleotide editing of the BFP gene was measured by the expression of GFP (signifying the conversion of […] via the programmed nucleotide edit in the BFP gene). The conversion assay was conducted utilizing the reverse transcriptase-based system (as described above in Example 2) comprising a template RNA (designed to convert BFP to GFP) and a fusion protein comprising a retroviral reverse transcriptase and the individual subject Cas endonuclease. The amino acid sequence of the base portion of the fusion protein (without the individual subject Cas endonuclease) is set forth in Table 7 (SEQ ID NO: 43).
Briefly, 200 ng of plasmid DNA encoding the subject fusion protein (containing one of the subject CasEnds) and 200 ng of template RNA (in plasmid format) were added to 25 μL SF buffer containing 250,000 HEK293T BFP-expressing cells. Nucleofection was mediated utilizing program DS-150. The day of nucleofection was marked as day 0. At day 4, the cells were harvested and analyzed by flow cytometry to assess the level of BFP and GFP expression in HEK293T cells. Cells having GFP signal were defined as having undergone a successful editing event, and the percent of cells that were GFP+ on day 4 was used to determine the performance of each Cas endonuclease.

B1: BFP-to-GFP template RNA ; BFP reporter protospacer (ssRNA ; dsDNA)
RNA: GCCGAAGCACUGCACGCCGUGUUUUAGAGCUAGAAAUAGCAAGUUAAAAUAAGGCUAGUCCGUUAUCAACUUGAAAAAGUGGCACCGAGUCGGUGCACCCUGACGUACGGCGUGCAGUGCUU
DNA 1: GCCGAAGCACTGCACGCCGT
DNA 2: ACGGCGTGCAGTGCTTCGGC
- activity: ≥ 100 % of reference
